Assay results published in article PMC3744435.

Target: capsid triplex (heterotrimer of two mCP and one mC-BP) (human cytomegalovirus (HCMV) strain AD169) (UniProt P16728)
Assay: cryo-EM structure

Question: Which stoichiometry N (copies per triplex) does the source give for “tegument protein pp150 (from UniProt P08318 1-1048) (natural protein)” here?
Answer: Its stoichiometry N (copies per triplex) is 3.
